Assay: soluble on expression in E. coli; label from the status in PepcDB or PDB records

Sequence | soluble on expression in E. coli
MLASRRLLPQISSRALSTSPALKSSEISVKEERPYVYNVKLNRPAKLNTFTMDMWREFKKAIDSLADDPKCRSIIISGEGKAFCAGIDIAHGLSDILRIIQDDTIEVGRKGRLVRKFIGEIQDCYTALERCPKPIIASIHSHCLGAGIDLITACDIRVASQDAIFSIREVDVGLAADIGTLNRIQKVVGNDSWTRDVAFTARDFGADEALRFGLISRIYDDRQSLLENSIDMAARIAEKSPIAVQGTKETLNYAREHSTDDSLNFIKTWNMSQLLSTDLLSSAMAVMNKKKATYEDV | not soluble
MHHHHHHSSGVDLGTENLYFQSMLPHSVLLEIQKELLDYKGVGISVLEMSHRSSDFAKIINNTENLVRELLAVPDNYKVIFLQGGGCGQFSAVPLNLIGLKAGRCADYVVTGAWSAKAAEEAKKFGTINIVHPKLGSYTKIPDPSTWNLNPDASYVYYCANETVHGVEFDFIPDVKGAVLVCDMSSNFLSKPVDVSKFGVIFAGAQKNVGSAGVTVVIVRDDLLGFALRECPSVLEYKVQAGNSSLYNTPPCFSIYVMGLVLEWIKNNGGAAAMEKLSSIKSQTIYEIIDNSQGFYVCPVEPQNRSKMNIPFRIGNAKGDDALEKRFLDKALELNMLSLKGHRSVGGIRASLYNAVTIEDVQKLAAFMKKFLEMHQL | soluble
AHHHHHHGSEKLEKTVDMNIQQMINLSVLELVKLGLKYGIFKAVSKKISYIDLLNQVDVPNKPLLKKLIDHLKLLGIIEETPTHLLLNSFSYEIRFPKEEHMYLLPDWIPSFEEIYRMVDFALITPNHPHVLMDFDKDADFWDLRLSSTFHEAYRILIAKLGEIGEGSRVLDIGCGSASPAYFGKLVGEEGEYVGVDYSPALLEIAKNRTEGLPVKLKEMDASLIKPKNKYDVAIMSFVLEYIENRRSALRNALDSLESGGKLIIVDAFKDEFRNVEALEFFEGLNSAFREYPSKKYIKEVILDEGFEVKFGDYGKAILLIEKL | soluble
MADGMGNLIGWEKTGLVVGKQWITAKDDKVSDVCNANGEMGVIGLYEPFSHGALTIPGHPNCRCEVVSVSGGELGEFAEKKELRKAAMQYARDNFIGKSYVNKNSGHELKVTWQGVKHAASKANQAELSIMTKLDDLLRYAKYEGSYSDRKGHPNIIAAHKYRAVAKVGNESLNIGVIVREFPDDHKHYDHFILKDE | not soluble
HQITRTVPAKRGTIYDRNGVPIAEDATSYNVYAVIDKKYKSATGKILYVEDAQFNKVAEVFHKYLDMEESYVREQLSQPNLKQVSFGSKGNGITYANMMAIKKELETAEVKGIDFTTSPNRSYPNGQFASSFIGLAQLHENEDGSKSLLGTSGMESSLNSILAGTDGIITYEKDRVGNIVPGTELVSQQTVDGKDVYTTLSSPLQSFMETQMDAFLEKVKGKYMTATLVSAKTGEILATTQRPTFNADTKEGITEDFVWRDILYQSNYEPGSAMKVMTLASSIDNNTFPSGEYFNSSELKIADATTRDWDVNEGLTTGGMMTFLQGFAHSSNVGMSLLEQKMGDATWLDYLKRFKFGVPTRFGLTDEYAGQLPADNIVSIAQSSFGQGISVTQTQMLRAFTAIANDGVMLEPKFISAIYDTNNQSVRKSQKEIVGNPVSKEAASTTRNHMILVGTDPLYGTMYNHYTGKPIITVPGQNVAVKSGTAQIADEKNGGYLVGSTNYIFSAVTMNPAENPDFILYVTVQQPEHYSGIQLGEFATPILERASAMKESLNLQSPAKNLDKVTTESSYAMPSIKDISPGELAEALRRNIVQPIVVGTGTKIKETSVEEGTNLAPNQQVLLLSDKVEEIPDMYGWKKETAETFAKWLDIELEFEGSGSVVQKQDVRTNTAIKNIKKIKLTLGD | soluble
MVKATAIDMSLSDIISTNRKNKKVVKKPIKKSAGGIRKRGNASNVGTPRRQSGGTSRGGGRMGNTVRRSAGGSSNDNKQVRINISNLAETVISSDLQELFGAFNLHKVSVNFNENGGAAGTGDITLKKYDADRLIQKFAGVALDGKVMHFAVIESSNFARKPEIRGTPNRRQSSGKPINRKVANPPRRQNAAKPPVKKGKKPAREQKPPKTAEQLDAELDAYMSRSA | not soluble
MGELIYGEVKKQTKDGFIIDLGDNAEAYLAREEMIAKEILRPKQRMNAILYSVNREGRGAQLLLSRALEHHHHHH | not soluble
KFFNLFLKKGNKINPLIGNAGVSAVPDSARISQVIGLEYDPTNYLLMHAM | not soluble
MSLSYPYYIVDAFAEEVFKGNPAAVYVLEKWLPEAVMQNIAIENNLSETAFTVKEGQSYALRWFTPEREIDLCGHATLATAFVLFNYYSVAEETLHFTSQSGPLAVTKKEEYYYLDFPYILPERIPILPEYEAALGTKIYEAYLGRDLFFVLKDEETVAKITPDFSALKALDLGVGVIVTASGDSVDFVSRTFFPKLRINEDPVCGSAHANLIPYWGKRLNQTTLSAYQVSPRGGFLTCEVKENRVIIGGTAKLFAKGEAYLPVEGGSHHHHHH | soluble
AHHHHHHGSKKFRFFVSGMPGVGKTTLAKRIADEIKREGFKVGGIITQEIRSGARRSGFRVIALDTGEIGRLAYVGQGYPRLGRYVIDVESFEKVAIPAISRALREGDLIVIDEIGPMEFKSNEFLKALGLVLRSEKPLLATVHRRFVERYRPLGEYYWLTPENREAVFSEILVKIKELLRENENAGNKAQD | not soluble
SLPGKLALKLDPTILKHLAKNYDVIVITGTNGKTLTTALTVKVLREQYPDILTNPSGSNMKQGIVTTFLRAPKAHQKPLAVLEVDEANVIMVTKYITPKAFVFTNIFRDQMDRYGEIYTTYQKILDGVALAPEATIIANGDLPLFNAKQLPNPILYYGFDYQPDHDQQAPANTDGLLCPRCQHILRYHSRTYSNMGKYYCPHCGFERPQLTYKLNALTAMTPTSSDFEINGQAMHLNIGGQYNIYNALAAYAVGRFMDVTPAKIAHALSDNDEQV | not soluble
MKKVLILSTSTGYGHNQAANSLMELIKNDDTEILVHDFLKENRFFDRSIVNGYDLCASSLGTLYGLLYKISNIKFINNLVSFLFLPVANKLAKFIHSFNPDLIITTHPLAVSILSYLKKRQIIKVPVISVVTDFKCHYTYVSKIIDHYIVACDFTKENLASKGIPKERISPFGIPVKQDFYKEDYHNYVENIIQSPLNILLMGGGMGLDNISKVLKTLIKNENPLNLTIVCGNNAELKEDLCKEYGHIKGNKKLNILGYTTEIPKIMKSSDLIITKPGGLTTTESLLSHLPMIIPFIIPGQESENREFLSKSNCAITINHLEELNKVINDLNKDNNKLINMRKSILDVLSSYSPEGTIKLCTKMLNDSYNKRRYLEHHHHHH | soluble
MQRMGMVIGVKPEMIAEYKRLHAAVWPEVLALISESNIRNYTIFLREPENLLFGYWEYHGSDFSADMAKIAASPKNQEWWSFTIPCQQPLESRKEGEWWAMMEETFHLD | not soluble
MSWQTYVDDHLMCDIDGHRLTAAAIIGHDGSVWAQSSSFPQFKSDEVAAVMKDFDEPGSLAPTGLHLGGTKYMVIQGEPGAVIRGKKGSGGITVKRTGQALIIGIYDEPLTPGQCNMIVERLGDYLLDQGL | soluble
MHKDIKIVDASAIVKPTGTPYVVYFSSISNNTHRFIEKLEFEHTRIPVNLDEQIEVNQEYVLFCPTYSGGGEYTSGAVPKQVIHFLNNKHNRDLCRGVISSGNTNFGNTFAIAGPILSKKLNVPLLYQFELLGTKNDVEQVQTIITNFFGKAK | soluble
MFAPQGLAQFIKVNVTLENGEPVFIYTDANGQVCQGDITVTQAGTITYLLNDQTLKGLKFVGVGFVTPFDGIIDAVTISSDGMLVQLVDLDKTPGTTKFQFVLSNTANTLLVLSPDPQIINRPQN | soluble
MTNNDKNKKIVPEVKGTLRSHMIELPEVIRNATGIRVFGKRLKSFVFSTDVAVIRNTNADAVIAVYPFTPQPVITAAIVLAADVPVFCGVGGGLTMGKRVVNLALDAEFKGAMGVVVNSPTPNDIIREVRETIDIPIIVTVVSEYEDVQARIDSGATILNVSGAKRTSHIVRSIREKFPSIPIIATGGNNEASIIETIEAGANAITYTPPTTGKIFGDTMNSYRKKFE | not soluble
MGSDKIHHHHHHMNGHLNDCLICDGKLEYLDAAEEMECVICHKKHLNNVRCINRHYICDECHSKRGAKIILEVCRTTDSKNPIEIMQKLMAKPFIHMHGPEHHILTGAALLAAYHNSGGQLDLNKALNEIERRAKQVPGGACGFWGCCGAAISTGMFISIATGATPLSEREWSLSNLITSKVLRRISALGGPRCCKRNCFTAAKVAVEFTGEQLAVNMELPVDICCFFSPNNHECKGALCPYSPQHSNS | not soluble

Reference: the DeepSol protein solubility set
